In patent publication US20210220432A1, “Application of Polypeptide in Preparation of Composition for Preventing and Treating Human Papillomavirus Infection” (GENLOCI BIOTECHNOLOGIES INC., priority 2018, published 2021):
No end group written: not given here.

Key:
HPV-16 L1 protein = target: T1, HPV-16 L1 protein (Human papillomavirus type 16, UniProt P03101); assay: Biomolecular interaction analysis (SPR, Biacore 3000) of the polypeptide with HPV-16 L1 protein; format: binding
T1 construct: purchased Abcam ab119880
Excerpt: Biomolecular interaction analysis (BIA) is a biosensing analysis technology based on a physical optical phenomenon known as surface plasmon resonance (SPR). BIA can provide real-time observation of the interaction between biomolecules, through which, the binding specificity of two molecules can be observed, how strong the binding of the two molecules is can be known, and how many cooperators and participants there are in the binding process of biomolecules can be known.
In this experiment, BIA technology is used to observe whether there is an interaction between the polypeptide of the present invention and the HPV L1 protein, so as to explore the mechanism of inhibiting HPV virus by the polypeptide.
3. […]
(5) The coupling effect is automatically calculated by the software. In the experiment, the experimental channel is finally coupled with about 5300 RU of HPV-16 L1 Protein, where the unit RU is the unit of coupling quantity defined by the system. […]
(8) The program is designed according to the steps of equilibration, testing, equilibration, and regeneration, and the polypeptide solution of each concentration was detected. […] During the detection, the sample passes through the blank channel and the experimental channel in turn, and the data to be detected is the resultant difference of “experimental channel response value minus blank channel response value”. […]

HPV = conditions: literature study; HD6 at the highest cytotoxic dose; cited from earlier work
[1] = target: T2, HPV-16 L1 protein (Cat. No. ab119880, Abcam), recombinantly expressed (human papillomavirus type 16), P03101; assay: SPR, Biacore 3000, HPV-16 L1 amine-coupled on chip, polypeptide as analyte
T2 chain: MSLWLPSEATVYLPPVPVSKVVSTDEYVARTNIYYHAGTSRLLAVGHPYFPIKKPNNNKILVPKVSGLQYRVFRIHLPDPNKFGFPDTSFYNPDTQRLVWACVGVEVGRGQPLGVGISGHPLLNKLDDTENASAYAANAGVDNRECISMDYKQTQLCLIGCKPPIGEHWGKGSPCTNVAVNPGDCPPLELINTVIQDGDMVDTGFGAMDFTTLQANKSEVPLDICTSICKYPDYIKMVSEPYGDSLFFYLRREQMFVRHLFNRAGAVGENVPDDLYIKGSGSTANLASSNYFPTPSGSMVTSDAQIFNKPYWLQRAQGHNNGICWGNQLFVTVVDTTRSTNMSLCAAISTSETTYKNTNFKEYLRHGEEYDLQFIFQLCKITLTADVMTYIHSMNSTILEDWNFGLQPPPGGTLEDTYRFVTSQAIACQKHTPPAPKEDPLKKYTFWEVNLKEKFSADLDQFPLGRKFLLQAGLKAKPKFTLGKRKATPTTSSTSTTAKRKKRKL

## MGRFKRFRKKFKKLFKKLS [The polypeptide]
HPV-16 L1 protein; KD, Affinity constant, SPR, kinetic analysis, HPV-16 L1 protein
  Kd: 0.782 nM
HPV-16 L1 protein; read-out: ka, Binding constant
  kon: 2.35e+06 M⁻¹ s⁻¹

## HD6: human α-defensin secreted by human Paneth cells (AFTCHCRRSCYSTEYSYGTCTVMGINHRFCCL; ends and bridges not checked; cysteine pairing not given here; UniProt Q01524 69-100, looked up) [reference compound]
HPV
  Activity against HPV: inactive

## MGRFKRFRKKFKKLFKKLS (modifications not checked) [the polypeptide of the present invention (antimicrobial polypeptide, SEQ ID NO: 1)]
[1]
  Kd: 0.782 nM
  koff: 0.00184 s⁻¹
  kon: 2.35e+06 M⁻¹ s⁻¹

B1: HD5: human α-defensin secreted by human Paneth cells (peptide, UniProt Q01523 20-94, looked up)
Defensin alpha 5: ESLQERADEATTQKQSGEDNQDLAISFAGNGLSALRTSGSQARATCYCRTGRCATRESLSGVCEISGRLYRLCCR
modifications: Defensin-5
notes: human α-defensin secreted by human Paneth cells
HPV
  Activity against HPV: inhibiting HPV activity
